According to US20250223342A1 (ARGENX, published 2025):
Residue numbers refer to the chain shown, from its start. Like-named read-outs stand apart in the source and are kept apart here.

B1: 11C03 parental fused at the C-terminus of Fc-ABDEG (Fc fusion, not shown: a dimerising Fc or GST; small tags and cut ends)
chain: QLQVVESGGGLVQAGGSLRLSCAASERTFVAYPMGWFRQAPEKEREFVAGISWFAGATTDYADSVEGRFTISRDNAKNTAYLQMNNLKPEDTAVYYCAISHQLPGGRPGRDMDSYSYWGHGTQVTVSS
B2: 11C03-v6 fused at the C-terminus of Fc-ABDEG (Fc fusion, not shown: a dimerising Fc or GST; small tags and cut ends)
chain: B1 chain with G105A
B3: Motavizumab-Fab fragment fused with 2H11 C-terminally to the light chain using a 20GS linker (protein, part only; not given: motavizumab Fab and linker, not shown: another chain or arm of the molecule; small tags and cut ends)
VHH: ELQVVESGGGLVQAGGSLRLSCAASGRTFRSNTMGWFRQAPGKEREFVAAITWSGGTTYYADSVKGRFAISGDNAKNTVYLQMNSLKPEDTAVYYCAAEGPKWEPWNGIYHPADFGSWGQGTQVTVSS
B4: 9F02 (VHH)
VHH: EVQLVESGGGLVQAGGSLRLSCTASRRAFIGYAMGWFRQAPGKEREFVAAISWFAGDTTDYADSVKGRFTISRDNAKNTVYLQMNGLKPEDTAVYVCAASSARPMSGRSDEYHYWGQGTQVTVSS
B5: 9E10 (VHH)
VHH: B4 VHH with E1Q, V2L, L4V, A24T, R26G, D63N, G86S, M105L, G107S
B6: 11C03 (VHH)
VHH: B1 chain
notes: also called 11C03 parental (VHH)
B7: 12G03 (VHH)
VHH: QVQLVESGGGLVQAGGSLRLSCAASERAFSHSNMAWFRQAPGKEREFVAHIHWRGSTTYLDSVKGRFTISRDNAKNTVYLQMNGLRLEDTAVYYCAADSARRILVTVSTSYDYWGQGTQVTVSS

Columns and labels:
human serum albumin [1] = molecular target: T1, human serum albumin (human, UniProt P02768 25-609); assay: SPR (Biacore 8K+, single cycle kinetics), HSA on CM5 chip
T1 construct: also called HSA

human serum albumin [2] = molecular target: T1, human serum albumin; assay: SPR (Biacore 8K+, single cycle kinetics), HSA on CM5 chip, HBS-EP+ pH 7.4
human serum albumin [3] = molecular target: T1, human serum albumin; assay: SPR (Biacore 8K+, single cycle kinetics), HSA on CM5 chip, citrate buffer pH 5.5
human serum albumin [4] = molecular target: T1, human serum albumin; assay: SPR (Biacore 3000), HSA on chip, Fc-ABDEG fusion, pH 5.5
human serum albumin [5] = molecular target: T1, human serum albumin; assay: SPR (Biacore 3000), HSA on chip, Fc-ABDEG fusion, pH 7.4
human serum albumin [6] = molecular target: T1, human serum albumin; assay: SPR (Biacore 3000), HSA on chip, Fc-ABDEG fusion, pH 5.5; remark: listed apart in the source
human serum albumin [7] = molecular target: T1, human serum albumin; assay: SPR (Biacore 3000), HSA on chip, Fc-ABDEG fusion, pH 7.4; remark: listed apart in the source
human serum albumin [8] = molecular target: T1, human serum albumin; assay: SPR (Biacore 3000), HSA on chip, Fc-ABDEG fusion, ratio of R0
human serum albumin [9] = molecular target: T1, human serum albumin; assay: as above; remark: listed apart in the source
[10] = molecular target: T2, cynomolgus monkey serum albumin (cynomolgus monkey, UniProt A2V9Z4 25-608); assay: SPR (Biacore 3000), cyno albumin on chip, Fc-ABDEG fusion, pH 5.5
T2 construct: also called cyno albumin; CSA

[11] = molecular target: T2, cynomolgus monkey serum albumin; assay: SPR (Biacore 3000), cyno albumin on chip, Fc-ABDEG fusion, pH 7.4
[12] = molecular target: T2, cynomolgus monkey serum albumin; assay: SPR (Biacore 3000), cyno albumin on chip, Fc-ABDEG fusion, ratio of R0
human serum albumin [13] = molecular target: T1, human serum albumin; assay: SPR (Biacore), VHH clone, pH 5.5
human serum albumin [14] = molecular target: T1, human serum albumin; assay: SPR (Biacore), VHH clone, pH 7.4
human serum albumin [15] = molecular target: T1, human serum albumin; assay: SPR (Biacore), off-rate pH 7.4 over pH 5.5
[16] = molecular target: T2, cynomolgus monkey serum albumin; assay: species reactivity, screening by ELISA and Biacore
mouse serum albumin = molecular target: T3, mouse serum albumin (mouse, UniProt P07724 25-608); assay: species reactivity, screening by ELISA and Biacore
T3 construct: also called MSA; mouse albumin

[17] = molecular target: T4, isolated DII of serum albumin (UniProt P02768 211-403, limits assumed); assay: DII binder column of the clone screening
T4 construct: domain: DII

| Molecule | Kd (human serum albumin [13]) [nM] | koff (human serum albumin [13]) [s⁻¹] | koff (human serum albumin [14]) [s⁻¹] | Ratio Kd (human serum albumin [15]) | binding result [16] | binding result (mouse serum albumin) | further results |
| --- | --- | --- | --- | --- | --- | --- | --- |
| Motavizumab-Fab fragment with Alb23 fused C-terminally to the light chain using a 20GS linker |  |  |  |  |  |  | KD ratio (pH 7.4 / pH 5.5) (human serum albumin [1]): 5.28; Kd (human serum albumin [2]): 65 nM; Kd (human serum albumin [3]): 12.3 nM |
| B1 |  |  |  |  |  |  | R0 pH 5.5 (human serum albumin [4]): 177 RU; R0 pH 7.4 (human serum albumin [5]): 42.2 RU; R0 pH 5.5 (human serum albumin [6]): 229 RU; R0 pH 7.4 (human serum albumin [7]): 57 RU; R0 5.5/7.4 (human serum albumin [8]): 4.22; R0 5.5/7.4 (human serum albumin [9]): 4; R0 pH 5.5 [10]: 220 RU; R0 pH 7.4 [11]: 33 RU; R0 5.5/7.4 [12]: 6.7 |
| B2 |  |  |  |  |  |  | R0 pH 5.5 (human serum albumin [4]): 39.3 RU; R0 pH 7.4 (human serum albumin [5]): 12.1 RU; R0 5.5/7.4 (human serum albumin [8]): 3.26 |
| B3 |  |  |  |  |  |  | KD ratio (pH 7.4 / pH 5.5) (human serum albumin [1]): 92.6; Kd (human serum albumin [2]): 264 nM; Kd (human serum albumin [3]): 2.85 nM |
| B4 | 0.575 | 7.8e-05 | 0.00013 | 1.6 | binds | binds |  |
| B5 | 15.4 | 0.00246 | 0.00412 | 1.7 | binds | binds |  |
| B6 | 4.12 | 0.00051 | 0.0039 | 7.7 |  | binds |  |
| B7 | 8.14 | 0.00126 | 0.00522 | 4.1 | binds | binds | binding result [17]: no binding |
